# According to patent publication US20230220042A1 (SHANGHAI JIAO TONG UNIVERSITY SCHOOL OF MEDICINE, published 2023):
# T1: Biotin-FcγRIIB (human, UniProt P31994 43-217, limits assumed, biotin-labelled)
# T1 construct: Bought, biotin-labelled; used at 1 µg/ml for staining and sorting; also called human FcγRIIB; CD32b
# T1 sequence (looked up): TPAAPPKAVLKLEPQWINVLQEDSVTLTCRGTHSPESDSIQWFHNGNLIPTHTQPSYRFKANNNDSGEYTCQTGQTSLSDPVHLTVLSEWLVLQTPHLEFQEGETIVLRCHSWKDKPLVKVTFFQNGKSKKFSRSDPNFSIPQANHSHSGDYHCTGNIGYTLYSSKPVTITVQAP
# Biological target: T1, Biotin-FcγRIIB
# Assay: magnetic sorting on biotin-FcγRIIB with unlabelled activating FcγRs, NGS; LibraryMix #4
# Experimental: 3T3 cells were collected by trypsin digestion, and a single cell suspension was prepared. […] The cells were incubated for 15 minutes on ice and then washed twice with MACS buffer and re-suspended in 100 μl MACS buffer. Twenty-five μl anti-Biotin magnetic beads were added, and the cells were incubated for 15 minutes on ice and then washed once with MACS buffer and re-suspended to 500 μl, and added to the LS column put in the magnetic field. The effluent was collected, washed with 3 mL of MACS buffer and collected; The LS column was then removed out of the magnetic field, and 5 mL of MACS buffer was used to rapidly elute the remaining cells from the sorting column to collect positive cells, which are the high I/A ratio cells.
# The high-FcγRIIB-affinity cells obtained from the above flow cytometry sorting are further sorted by magnetic-activated sorting. The cells are incubated with the mixture of Biotin-labeled FcγRIIB and non-labeled activating FcγRs, and then the labeled cells are sorted by anti-Biotin magnetic beads. The enrichment ratios after sorting relative to before sorting are analyzed by NGS.
Enrichment factor (percentage after sorting/percentage before sorting),Increased factor (mutation enrichment factor/wild-type enrichment factor),Percentage after sorting/unbinding percentage,Percentage before sorting/unbinding percentage,Binder
2.16,2.3,29.6,13.7,"human IgG2 anti-mouse CD40 surface displayed antibody, Fc mutant L328P (antibody, name in EU numbering, as m1; positions are Eu numbers; copies: 2 + 2) light chain (with the P2A rest): DTVLTQSPALAVSPGERVTISCRASDSVSTLMHWYQQKPGQQPKLLIYLASHLESGVPARFSGSGSGTDFTLTIDPVEADDTATYYCQQSWNDPWTFGGGTKLELKRTVAAPSVFIFPPSDEQLKSGTASVVCLLNNFYPREAKVQWKVDNALQSGNSQESVTEQDSKDSTYSLSSTLTLSKADYEKHKVYACEVTHQGLSSPVTKSFNRGECGSGATNFSLLKQAGDVEENPG heavy chain: EVQLVESDGGLVQPGRSLKLPCAASGFTFSDYYMAWVRQAPTKGLEWVASISYDGSSTYYRDSVKGRFTISRDNAKSTLYLQMDSLRSEDTATYYCGRHSSYFDYWGQGVMVTVSSASTKGPSVFPLAPCSRSTSESTAALGCLVKDYFPEPVTVSWNSGALTSGVHTFPAVLQSSGLYSLSSVVTVPSSNFGTQTYTCNVDHKPSNTKVDKTVERKCCVECPPCPAPPVAGPSVFLFPPKPKDTLMISRTPEVTCVVVDVSHEDPEVQFNWYVDGVEVHNAKTKPREEQFNSTFRVVSVLTVVHQDWLNGKEYKCKVSNKGPPAPIEKTISKTKGQPREPQVYTLPPSREEMTKNQVSLTCLVKGFYPSDIAVEWESNGQPENNYKTTPPMLDSDGSFFLYSKLTVDKSRWQQGNVFSCSVMHEALHNHYTQKSLSLSPGKLEPPPSTVSNMATVAVLVVLGAAIVTGAVVAFVMKMRRRNTGGKGGDYALAPGSQTSDLSLPDCKVMVHDPHSLA"
4.26,4.53,,,"human IgG2 anti-mouse CD40 surface displayed antibody, Fc mutant L328W (antibody, name in EU numbering, as m1; positions are Eu numbers; copies: 2 + 2) light chain (with the P2A rest): DTVLTQSPALAVSPGERVTISCRASDSVSTLMHWYQQKPGQQPKLLIYLASHLESGVPARFSGSGSGTDFTLTIDPVEADDTATYYCQQSWNDPWTFGGGTKLELKRTVAAPSVFIFPPSDEQLKSGTASVVCLLNNFYPREAKVQWKVDNALQSGNSQESVTEQDSKDSTYSLSSTLTLSKADYEKHKVYACEVTHQGLSSPVTKSFNRGECGSGATNFSLLKQAGDVEENPG heavy chain: EVQLVESDGGLVQPGRSLKLPCAASGFTFSDYYMAWVRQAPTKGLEWVASISYDGSSTYYRDSVKGRFTISRDNAKSTLYLQMDSLRSEDTATYYCGRHSSYFDYWGQGVMVTVSSASTKGPSVFPLAPCSRSTSESTAALGCLVKDYFPEPVTVSWNSGALTSGVHTFPAVLQSSGLYSLSSVVTVPSSNFGTQTYTCNVDHKPSNTKVDKTVERKCCVECPPCPAPPVAGPSVFLFPPKPKDTLMISRTPEVTCVVVDVSHEDPEVQFNWYVDGVEVHNAKTKPREEQFNSTFRVVSVLTVVHQDWLNGKEYKCKVSNKGWPAPIEKTISKTKGQPREPQVYTLPPSREEMTKNQVSLTCLVKGFYPSDIAVEWESNGQPENNYKTTPPMLDSDGSFFLYSKLTVDKSRWQQGNVFSCSVMHEALHNHYTQKSLSLSPGKLEPPPSTVSNMATVAVLVVLGAAIVTGAVVAFVMKMRRRNTGGKGGDYALAPGSQTSDLSLPDCKVMVHDPHSLA"
